Measurements taken from publication PMC8880779 (International Journal of Molecular Sciences, 2022).

Legend:
[1] = target: T1, calmodulin (CaM) (Bos taurus, UniProt P62157); experiment: Kinetics of Aβ(1–42) HiLyte-Fluor555 complex formation with CaM (fluorescence increase); type: binding, human
T1 construct: Purified bovine brain CaM; purchased Sigma-Aldrich (Madrid, Spain); host or cells: bovine brain

[2] = target: (Ca^2+)4-CaM; settings: read-out: dissociation constant of the Aβ:(Ca^2+)4-CaM complex; cited from earlier work
Description: These neurons are in the brain areas that are highly prone to neurodegeneration in AD. […] Considering their spatial organization in the CaM structure, we included a couple of additional hydrophobic amino acid residues as spacing groups.

[3] = Aggregation state of Aβ(1–42) stock solutions (photoinduced cross-linking of unmodified proteins); type: physicochemical; settings: 2 μM stock solutions
[4] = tested on: CaM in cerebellar granule neurons in culture; settings: 2 h incubation with 2 μM Aβ(1–42) oligomers; cited from earlier work
Description: These neurons are in the brain areas that are highly prone to neurodegeneration in AD. […] Therefore, CaM has a high capacity to buffer the intracellular concentrations of these highly neurotoxic Aβ peptides ...

[5] = parameters: method as in PMID 15890345, PMID 18686032, PMID 26890761, PMID 34829555; settings: cited from earlier work

Y0, maximum fluorescence increase in the absence of the peptide ([1]; 10 nM Aβ(1–42) HiLyte-Fluor555, 5 nM CaM, 1000 s after addition, hyperbolic fit R^2 = 0.966, triplicate) [%]	slope of linear least-squares fit of first-order plot ([1]; fit y = 9.845 − 0.00396 x (R^2 = 0.922), 10 nM Aβ(1–42) HiLyte-Fluor555, 5 nM CaM, sign of slope in the equation negative)	stoichiometry of complex ([1]; 10 nM CaM, 10 nM Aβ(1–42))	increase of rate constant ([1]; 10 nM vs 5 nM CaM, 10 nM Aβ(1–42))	rate constant of the kinetic process ([1]; 1:1 molar ratio, 10 nM CaM and 10 nM Aβ(1–42))	Substance	maximum fluorescence change vs CaM concentration ([1]; 10 nM Aβ(1–42) HiLyte-Fluor555, CaM 2.5, 5 and 10 nM)	Kd [2] [nM]	concentration of monomers [3]	predominant aggregation state ([3]; 1% NH4OH diluted with phosphate-buffered saline)	binding of internalized Aβ(1–42) by CaM [4]	neurotoxicity [5]
22	0.00396				Aβ(1–42) HiLyte^TM-Fluor555: Human Aβ(1–42)-HiLyte™-Fluor555 obtained from AnaSpec	the maximum fluorescence change was achieved when CaM concentration increased from 2.5 to 5 nM, and it is not significantly different between 5 and 10 nM of CaM					
		Aβ(1–42)2:CaM2 complexes	about 4 fold	(18 ± 4)·10^−3 s^−1	Aβ(1–42): unlabeled Aβ(1–42) synthesized and supplied by StabVida and GenicBio Limited		~1	undetectable concentration of Aβ(1–42) monomers	Dimers are the predominant aggregation state	CaM binds most of the Aβ(1–42) internalized in cerebellar granule neurons	
					Aβ(25–35): highly neurotoxic peptides derived from Aβ(1–42), like Aβ(25–35) (GSNKGAIIGLM; Amyloid-beta protein 42; UniProt P05067 696-706, looked up, fragment)		~1				strongly neurotoxic
